# Tested on: MS2 coat protein
# Assay: apparent KD of MS2 coat protein; designed switch direction (-1 OFF switch, 1 ON switch): -1; higher = weaker reporter binding
# How it was run: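 Designed RNA switches were transcribed on Illumina chips by stalled E. coli RNA polymerase and titrated with SNAP-549-labelled MS2 coat protein from 0.7 or 1.5 nM, doubling to 3 µM. Step length ran from 0.8–1.5 h at the lowest concentration to 10–20 min at the highest. The apparent KD is the median over clusters for each design, from curve-fitted normalised cluster fluorescence.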
# [1] = input ligand: microRNA oligo, concentration not stated
# [2] = Eterna round: R95, input ligand: FMN 200 uM
# [3] = Eterna round: R95, input ligand: microRNA oligo, concentration not stated
# [4] = Eterna round: R95, input ligand: none
Sequence,apparent KD of MS2 coat protein (input ligand: FMN 200 uM) [nM],apparent KD of MS2 coat protein [1] [nM],apparent KD of MS2 coat protein (input ligand: none) [nM],apparent KD of MS2 coat protein [2] [nM],apparent KD of MS2 coat protein [3] [nM],apparent KD of MS2 coat protein [4] [nM]
"UUAAUUAAUUAAUUAUAAGAUCAACAUGAGGAUCACCCAUGUGAGGAUAUCAGCUCGUGUAGAGCUGAGAAGGCACAAAUAAUU [ExNG3/16-B3] (Eterna round: R96, puzzle: Exclusion NG 3)",86.5,27.9,51.5,,,
"GGUCGGCGAGGAUAUACAUGAGGAUCACCCAUGUGAUAGAUUGCACGCGUACGUGUAUGUAGAAGGCGCUGACG [JL-ex3-3.30 salish99 mod] (Eterna round: R96, puzzle: Exclusion 3)",433,24.7,32.8,,,
GUGUAGAUAGGAUAUACAUGAGGAUCACCCAUGUGAAUAAGAUAGAAUAAGAUAAAGUGUAGAAGGGUUAGUGU [Excluse me!!! 19 - Jieux - Exclusion 3] (puzzle: Exclusion 3),,,,34.3,30.2,39.9
"ACAUUACAUGAGGAUCACCCAUGUGAGGAUAUGGUGCGGUAGUGUCCUGUCGCGUACACCAGAAGGCGCGGGUG [1st #47] (Eterna round: R97, puzzle: Exclusion 1)",122,,258,,,
"CUGGGCGGAGGAUAUACAGGUUUAAUAUAAAUUAAAUUGGGACAUGAGGAUCACCCAUGUAGAAGGUUGUUUAG [-13.6, -11.8 kcal, 32% A] (Eterna round: R97, puzzle: Exclusion 2)",23.4,,22.1,,,
"GAGCCAUCGUGAGAUGGCUAAUAUACAUGAGGAUCACCCAUGUAGGAUAUCGAUUGCUUUGCAGUCGAGAAGGACAUGUUUAAU [JL ENG3 3.97] (Eterna round: R96, puzzle: Exclusion NG 3)",67.4,26.7,33.7,,,
AAGAAACAUGAGGAUCACCCAUGUGAGGAUAUGACCAAGAAAAGAAAAGAAAGAAGAGUCAGAAGGCACAAAGG [salish99-ex1_r3_066] (puzzle: Exclusion 1),,,,99.7,56.6,181
"AGUACUAUGCGAGCUGACUUGCGUAGUGCAGCAAGUGAAACAUGAGGAUCACCCAUGUCCUCAUUUGCUCGUCUUAU [Mat - Sensor v3 - Turn-off var 2 - D1] (puzzle: Sensor v3, turn-off variant 2)",,,,35.3,453,30.8
"UAAUGCAGGUAAAGAUUCUACAUGAGGAUCACCCAUGUGCUCGUCUUAUAAAGUACUAUCACGAAAGUGAUAGUACA [Mat - Sensor v3 - turn-off var 1 - Eli Mod - D101] (puzzle: Sensor v3, turn-off variant 1)",,,,27.6,220,24.8
UUAUACGGUGAGGAUAUCUUCACUAAAGUGUGAAGAGAAGGCGCUACAUGAGGAUCACCCAUGUCUAUGGGCAG [Ex-6 Malc#17] (puzzle: Exclusion 6),,,,118,187,156
UAUUAAUGCAAGGAUAUGCUAUUAAUUUAUUUUGCAGAAGGUGCAACAUGAGGAUCACCCAUGUUGGAGGGUAU [JR_E6_Sub028] (puzzle: Exclusion 6),,,,,19.3,
GCCAGAGCAGGAUAUUCAAUAAUCCACAUGAGGAUCACCCAUGUCCAGCGAAAGCUGGAGGGAGAAGGGCUCUGGC [Fiskers Ex 5 - 7] (puzzle: Exclusion 5),,,,,73.4,
GCCAGAGCAGGAUAUUCAAUAUCACACAUGAGGAUCACCCAUGUCUAUCGAAAGAUAGAGGGAGAAGGGCUCUGGC [Mat - Exclusion 5 - Eli mod - D94] (puzzle: Exclusion 5),,,,,55.2,
UUUUAGACAGGAUAUACAUUUUUUUAUUUAUUUAUAAUAUUACAUGAGGAUCACCCAUGUAGAAGGGUCAUUUU [My Design] (puzzle: Exclusion 2),,,,,37.1,
CCUUUGUCAGGAUAUCAGAACGCGCUCGAAAGGAACGCAAAUGAGAAGGGACAUGAGGAUCACCCAUGUAAAGA [Enenrixe] (puzzle: Exclusion 4),,,,158,42.8,45
GAGUAGCUAGGAUAUCGAAAACAUCACAUGAGGAUCACCCAUGUGCCGGGUGCUCAGAUGCGAGAAGGAGCAAAGA [Reatququ] (puzzle: Exclusion 5),,,,219,131,175
GAGGAACAUGAGGAUCACCCAUGUGAGGAUAUGCAUAGUGAGGUAGUAGAAGUUGAAUGCAGAAGGUACACUGA [JR_Exclu1_Sub077] (puzzle: Exclusion 1),,,,,39,
"CCAAGCUAAAUCAUUAACAACAUGAGGAUCACCCAUGUGUAAGCAAUUAUGUUUGGGCUCUUUAGUGCUCGUCUUAU [JR_STOV1_Sub043] (Eterna round: R97, puzzle: Sensor, turn-off variant 1)",15.7,,16.3,,,
"GACUAAACACGAGGAUAUGCCUGGGAAGAACAGGCAGAAGGCGUGACAUGAGGAUCACCCAUGUAGCCGGGCUAUUCUCGUACG [Tirearerar] (Eterna round: R96, puzzle: Exclusion NG 1)",30.8,24.7,30.3,,,
"AGUUAGAAAGGAUAUACAUGAGGAUCACCCAUGUAGGGCUGUUAGAGACCCGGUCUCUGUAGAAGGUUCGAACU [EX3 C.16] (Eterna round: R97, puzzle: Exclusion 3)",30.8,,28.9,,,
"GUUCGGGCAGGAUAUACAUGAGGAUCACCCAUGUGUGUCCAUACGCGUGAGUCUUCGUGUAGAAGGGUUUGGGC [-30.5, -27.8 kcal, 20% A] (Eterna round: R97, puzzle: Exclusion 3)",27.3,,21.1,,,
"CUGGCUUAGAGAGGAUAUGACAUUCAAGCCUACCCUGGCCACGGGCCACAUGAGGAUCACCCAUGUCAGAAGGCUCAGGCCAGA [Enorri] (Eterna round: R96, puzzle: Exclusion NG 2)",61.7,25.5,32.8,,,
"AGUACUAACACGAAAGUGUUAGUACUGUAGGUUUGUGUUACAUGAGGAUCACCCAUGUCCUCAUAAGCUCGUCUUGU [Mat - Sensor v3 - Turn-off var 2 - D96] (puzzle: Sensor v3, turn-off variant 2)",,,,380,152,368
